The values below come from paper PMC11211324 (2024).

In the assay the target is KRAS-LgBiT (UniProt P01116 1-189). The assay is described as follows: NanoBiT in 293T cells.
KRAS-LgBiT, sequence (P01116 whole entry): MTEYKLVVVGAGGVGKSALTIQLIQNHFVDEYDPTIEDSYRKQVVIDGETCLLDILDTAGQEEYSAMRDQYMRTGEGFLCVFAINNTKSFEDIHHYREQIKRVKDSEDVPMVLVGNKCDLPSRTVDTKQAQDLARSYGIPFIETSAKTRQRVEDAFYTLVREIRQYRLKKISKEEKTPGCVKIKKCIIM

B1: TKD (nanobody)-SmBiT (VHH)
VHH: DVQLQESGGGLVQAGGSLRLSCVASGRTFSTYPTGWFRQAPGKEREFVARINLSGGITNYADSVKGRFTISRDNAKNTVYLQMNSLKPEDTAVYYCGGGSTTWAGGIPTNFDYWGQGTQVTVSS
One may read the Kd as the free concentration of one partner at which half of the binding sites on the other are occupied at equilibrium, for simple one-to-one binding. Low values mean tighter binding, high ones weaker binding. For B1, the affinity, expressed as Kd, was 41.3 nM. That is a double-digit nanomolar value.
